{"source": "patent US20210261648A1", "about": "(published 2021)", "key": {"[1]": {"target": "T1, FcγRIa extracellular domain with C-terminal His tag (human, UniProt P12314 16-292)", "T1 construct": "Whole entry named; also called FcgRIa; CD64A", "assay": "SPR (Biacore)", "T1 sequence (P12314 16-292)": "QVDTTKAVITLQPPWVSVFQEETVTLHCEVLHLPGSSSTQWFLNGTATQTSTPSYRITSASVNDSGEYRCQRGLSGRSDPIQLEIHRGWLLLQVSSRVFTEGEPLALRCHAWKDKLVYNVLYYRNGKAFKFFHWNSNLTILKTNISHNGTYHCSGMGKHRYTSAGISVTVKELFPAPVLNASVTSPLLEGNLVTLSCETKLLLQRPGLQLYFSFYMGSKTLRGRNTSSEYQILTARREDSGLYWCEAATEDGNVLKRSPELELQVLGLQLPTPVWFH"}, "[2]": {"target": "T2, FcγRIIa type H extracellular domain with C-terminal His tag (human, UniProt P12318 34-217)", "T2 construct": "extracellular domain; also called FcgRIIaH; FcγRIIa H", "T2 sequence (looked up)": "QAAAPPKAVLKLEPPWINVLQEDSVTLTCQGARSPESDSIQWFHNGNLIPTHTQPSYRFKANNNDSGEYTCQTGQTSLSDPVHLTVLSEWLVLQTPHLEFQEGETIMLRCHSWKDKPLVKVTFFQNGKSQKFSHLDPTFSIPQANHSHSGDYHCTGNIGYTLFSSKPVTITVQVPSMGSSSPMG", "assay": "SPR (Biacore)"}, "[3]": {"target": "T3, FcγRIIb extracellular domain with C-terminal His tag (human, UniProt P31994 43-217)", "T3 construct": "extracellular domain; For crystals it was expressed with kifunensine and trimmed with Endo F1; also called FcgRIIb; FcγRIIb extracellular region", "T3 sequence (looked up)": "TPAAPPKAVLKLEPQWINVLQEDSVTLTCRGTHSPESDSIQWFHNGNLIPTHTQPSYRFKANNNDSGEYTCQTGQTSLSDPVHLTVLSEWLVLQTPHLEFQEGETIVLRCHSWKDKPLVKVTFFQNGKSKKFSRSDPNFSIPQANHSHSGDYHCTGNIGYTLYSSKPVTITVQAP", "assay": "SPR (Biacore)"}, "[4]": {"target": "T4, FcγRIIIa type V extracellular domain with C-terminal His tag (human, UniProt P08637 17-208)", "T4 construct": "extracellular domain; Allotype V158 (type V); also called FcgRIIIaV; FcγRIIIaV", "T4 sequence (P08637 17-208 F176V)": "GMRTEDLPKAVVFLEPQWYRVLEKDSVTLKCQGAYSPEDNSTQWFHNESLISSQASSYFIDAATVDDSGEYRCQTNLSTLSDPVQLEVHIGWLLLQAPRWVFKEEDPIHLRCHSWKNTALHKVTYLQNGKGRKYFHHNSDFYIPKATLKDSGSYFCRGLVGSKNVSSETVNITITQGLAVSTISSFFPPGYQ", "assay": "SPR (Biacore)"}, "[5]": {"target": "T5, FcγRIIb extracellular domain with C-terminal His tag (human, UniProt P31994 43-217)", "T5 construct": "extracellular domain; For crystallography it was expressed with kifunensine and trimmed with Endo F1; also called FcgRIIb; FcγRIIb extracellular region; not shown: His tag attached to the C terminus", "T5 sequence (looked up)": "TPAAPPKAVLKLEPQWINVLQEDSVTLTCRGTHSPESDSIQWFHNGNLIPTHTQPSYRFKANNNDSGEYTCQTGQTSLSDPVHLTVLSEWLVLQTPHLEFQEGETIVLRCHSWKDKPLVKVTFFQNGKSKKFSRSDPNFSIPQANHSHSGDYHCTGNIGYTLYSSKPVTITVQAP", "assay": "SPR; KD for FcγRIIaH divided by KD for FcγRIIb"}, "[6]": {"target": "T5, FcγRIIb extracellular domain with …", "assay": "SPR; KD for FcγRIIaR divided by KD for FcγRIIb"}, "[7]": {"target": "T6, FcγRIa extracellular domain with C-terminal His tag (human, UniProt P12314 16-292)", "T6 construct": "also called FcgRIa; not shown: His tag attached to the C terminus", "assay": "SPR (Biacore), antibody captured, FcγR as analyte", "T6 sequence (P12314 16-292)": "as the sequence (P12314 16-292) above"}, "[8]": {"target": "T7, FcγRIIa type H extracellular domain with C-terminal His tag (human, UniProt P12318 34-217)", "T7 construct": "extracellular domain; also called FcγRIIaH; FcgRIIaH; not shown: His tag attached to the C terminus", "T7 sequence (looked up)": "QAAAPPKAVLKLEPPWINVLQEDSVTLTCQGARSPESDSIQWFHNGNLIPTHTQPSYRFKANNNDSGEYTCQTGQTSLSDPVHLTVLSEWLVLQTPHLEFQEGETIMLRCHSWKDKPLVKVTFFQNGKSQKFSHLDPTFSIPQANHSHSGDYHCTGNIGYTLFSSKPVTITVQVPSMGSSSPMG", "assay": "SPR (Biacore), antibody captured, FcγR as analyte"}, "[9]": {"target": "T5, FcγRIIb extracellular domain with …", "assay": "SPR (Biacore), antibody captured, FcγR as analyte"}, "[10]": {"target": "T8, FcγRIIa type R extracellular domain with C-terminal His tag (human, UniProt P12318 34-217)", "T8 chain": "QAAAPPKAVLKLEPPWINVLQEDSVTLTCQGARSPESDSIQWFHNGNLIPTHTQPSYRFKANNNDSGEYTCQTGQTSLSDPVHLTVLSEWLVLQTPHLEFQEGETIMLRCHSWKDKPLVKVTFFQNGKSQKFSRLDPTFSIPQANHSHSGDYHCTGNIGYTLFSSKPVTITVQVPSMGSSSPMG", "assay": "SPR (Biacore), antibody captured, FcγR as analyte"}, "[11]": {"target": "T5, FcγRIIb extracellular domain with …", "assay": "SPR; KD of IL6R-B3/IL6R-L divided by KD of the variant"}, "[12]": {"target": "T8, FcγRIIa type R extracellular domain …", "assay": "SPR; KD of IL6R-B3/IL6R-L divided by KD of the variant"}, "[13]": {"target": "T3, FcγRIIb extracellular domain with …", "assay": "SPR (Biacore), relative amount of binding"}, "[14]": {"target": "T2, FcγRIIa type H extracellular domain …", "assay": "SPR (Biacore), relative amount of binding"}}}
{"binder": "IL6R-BP478/IL6R-L (antibody, human IgG4 S228P, kappa) heavy: QVQLQESGPGLVKPSETLSLTCAVSGHSISHDHAWSWVRQPPGEGLEWIGFISYSGITNYNPSLQGRVTISRDNSKNTLYLQMNSLRAEDTAVYYCARSLARTTAMDYWGEGTLVTVSSASTKGPSVFPLAPCSRSTSESTAALGCLVKDYFPEPVTVSWNSGALTSGVHTFPAVLQSSGLYSLSSVVTVPSSSLGTKTYTCNVDHKPSNTKVDKRVESKYGPPCPPCPAPDLLGDDSVFLFPPKPKDTLMISRTPEVTCVVVDVSDEDGEVKFNWYVDGVEVHNAKTKPREEQDNSTYRVVSVLTVLHQDWLNGKEYKCKVSNKALPRPIEKTISKAKGQPREPQVYTLPPSRDELTKNQVSLTCLVKGFYPSDIAVEWESNGQPENNYKTTPPVLDSDGSFFLYSKLTVDKSRWQQGNVFSCSVMHEALHNHYTQESLSLSP light: not shown", "values": [{"measurement": "binding result", "setting": "[1]", "result": "binds"}, {"measurement": "binding result", "setting": "[2]", "result": "binds"}, {"measurement": "fold increase of binding against IL6R-BP230/IL6R-L", "setting": "[3]", "result": 1.1, "unit": "fold"}, {"measurement": "binding result", "setting": "[4]", "result": "binds"}]}
{"binder": "IL6R-BP473/IL6R-L (antibody, human IgG1, kappa) heavy: QVQLQESGPGLVKPSETLSLTCAVSGHSISHDHAWSWVRQPPGEGLEWIGFISYSGITNYNPSLQGRVTISRDNSKNTLYLQMNSLRAEDTAVYYCARSLARTTAMDYWGEGTLVTVSSASTKGPSVFPLAPSSKSTSGGTAALGCLVKDYFPEPVTVSWNSGALTSGVHTFPAVLQSSGLYSLSSVVTVPSSSLGTQTYICNVNHKPSNTKVDKKVEPKSCDKTHTCPPCPAPDLLGDDSVFLFPPKPKDTLMISRTPEVTCVVVDVSDEDGEVKFNWYVDGVEVHNAKTKPREEQDNSTYRVVSVLTVLHQDWLNGKEYKCKVSNKGLPRPIEKTISKAKGQPREPQVYTLPPSRDELTKNQVSLTCLVKGFYPSDIAVEWESNGQPENNYKTTPPVLDSDGSFFLYSKLTVDKSRWQQGNVFSCSVMHEALHNHYTQESLSLSP light: not shown", "values": [{"measurement": "binding result", "setting": "[1]", "result": "binds"}, {"measurement": "binding result", "setting": "[2]", "result": "binds"}, {"measurement": "fold increase of binding against IL6R-BP230/IL6R-L", "setting": "[3]", "result": 1.2, "unit": "times"}, {"measurement": "binding result", "setting": "[4]", "result": "binds"}]}
{"binder": "IL6R-BP565/IL6R-L (antibody, human IgG1, kappa, Anti-human IL-6R IgG1; alterations introduced into IL6R-B3 (G1d with K439E)) heavy: QVQLQESGPGLVKPSETLSLTCAVSGHSISHDHAWSWVRQPPGEGLEWIGFISYSGITNYNPSLQGRVTISRDNSKNTLYLQMNSLRAEDTAVYYCARSLARTTAMDYWGEGTLVTVSSASTKGPSVFPLAPSSKSTSGGTAALGCLVKDYFPEPVTVSWNSGALTSGVHTFPAVLQSSGLYSLSSVVTVPSSSLGTQTYICNVNHKPSNTKVDKKVEPKSCDKTHTCPPCPAPDLLGDDSVFLFPPKPKDTLMISRTPEVTCVVVDVAEEDGEVKFNWYVDGVEVHNAKTKPREEQDNSTYRVVSVLTVLHQDWLNGKEYKCKVSNKALPRPIEKTISKAKGQPREPQVYTLPPSRDELTKNQVSLTCLVKGFYPSDIAVEWESNGQPENNYKTTPPVLDSDGSFFLYSKLTVDKSRWQQGNVFSCSVMHEALHNHYTQESLSLSP light: not shown", "values": [{"measurement": "KD(IIaH)/KD(IIb)", "setting": "[5]", "result": 856}, {"measurement": "KD(IIaR)/KD(IIb)", "setting": "[6]", "result": 41.5}, {"measurement": "Kd", "setting": "[7]", "result": 2.4, "unit": "nM"}, {"measurement": "Kd", "setting": "[8]", "result": 4700, "unit": "nM"}, {"measurement": "Kd", "setting": "[9]", "result": 5.5, "unit": "nM"}, {"measurement": "Kd", "setting": "[10]", "result": 230, "unit": "nM"}, {"measurement": "KD(IIb) of the parent polypeptide/KD(IIb) of the altered polypeptide", "setting": "[11]", "result": 565}, {"measurement": "KD(IIaR) of the parent polypeptide/KD(IIaR) of the altered polypeptide", "setting": "[12]", "result": 4.8}]}
{"binder": "IL6R-BP477/IL6R-L (antibody, human IgG1, kappa) heavy: QVQLQESGPGLVKPSETLSLTCAVSGHSISHDHAWSWVRQPPGEGLEWIGFISYSGITNYNPSLQGRVTISRDNSKNTLYLQMNSLRAEDTAVYYCARSLARTTAMDYWGEGTLVTVSSASTKGPSVFPLAPSSKSTSGGTAALGCLVKDYFPEPVTVSWNSGALTSGVHTFPAVLQSSGLYSLSSVVTVPSSSLGTQTYICNVNHKPSNTKVDKKVEPKSCDKTHTCPPCPAPDLLGDDSVFLFPPKPKDTLMISRTPEVTCVVVDVSDEDGEVKFNWYVDGVEVHNAKTKPREEQDNSTYRVVSVLTVLHQDWLNGKEYKCKVSNKGLPRSIEKTISKAKGQPREPQVYTLPPSRDELTKNQVSLTCLVKGFYPSDIAVEWESNGQPENNYKTTPPVLDSDGSFFLYSKLTVDKSRWQQGNVFSCSVMHEALHNHYTQESLSLSP light: not shown", "values": [{"measurement": "binding result", "setting": "[1]", "result": "binds"}, {"measurement": "binding result", "setting": "[2]", "result": "binds"}, {"measurement": "binding result", "setting": "[4]", "result": "binds"}]}
{"binder": "IL6R-BP563/IL6R-L (antibody, human IgG1, kappa, Anti-human IL-6R IgG1; alterations introduced into IL6R-B3 (G1d with K439E)) heavy: QVQLQESGPGLVKPSETLSLTCAVSGHSISHDHAWSWVRQPPGEGLEWIGFISYSGITNYNPSLQGRVTISRDNSKNTLYLQMNSLRAEDTAVYYCARSLARTTAMDYWGEGTLVTVSSASTKGPSVFPLAPSSKSTSGGTAALGCLVKDYFPEPVTVSWNSGALTSGVHTFPAVLQSSGLYSLSSVVTVPSSSLGTQTYICNVNHKPSNTKVDKKVEPKSCDKTHTCPPCPAPDLLGDDSVFLFPPKPKDTLMISRTPEVTCVVVDVSEEDGDVKFNWYVDGVEVHNAKTKPREEQDNSTYRVVSVLTVLHQDWLNGKEYKCKVSNKALPRPIEKTISKAKGQPREPQVYTLPPSRDELTKNQVSLTCLVKGFYPSDIAVEWESNGQPENNYKTTPPVLDSDGSFFLYSKLTVDKSRWQQGNVFSCSVMHEALHNHYTQESLSLSP light: not shown", "values": [{"measurement": "KD(IIaH)/KD(IIb)", "setting": "[5]", "result": 525}, {"measurement": "KD(IIaR)/KD(IIb)", "setting": "[6]", "result": 29.1}, {"measurement": "Kd", "setting": "[7]", "result": 12, "unit": "nM"}, {"measurement": "Kd", "setting": "[8]", "result": 8300, "unit": "nM"}, {"measurement": "Kd", "setting": "[9]", "result": 16, "unit": "nM"}, {"measurement": "Kd", "setting": "[10]", "result": 460, "unit": "nM"}, {"measurement": "KD(IIb) of the parent polypeptide/KD(IIb) of the altered polypeptide", "setting": "[11]", "result": 196}, {"measurement": "KD(IIaR) of the parent polypeptide/KD(IIaR) of the altered polypeptide", "setting": "[12]", "result": 2.4}]}
{"binder": "B3 variant of GpH7-B3/GpL16-k0 with Pro at position 238 (EU numbering) substituted with Asp (antibody, human IgG1, kappa, also called mutation A) heavy: not shown light: DIVMTQSPLSLPVTPGEPASISCQASESLVHSNRNTYLHWYLQKPGQSPQLLIYKVSNRFSGVPDRFSGSGSGTDFTLKISRVEAEDVGVYYCSQNTHVPPTFGQGTKVEIERTVAAPSVFIFPPSDEQLKSGTASVVCLLNNFYPREAKVQWKVDNALQSGNSQESVTEQDSKDSTYSLSSTLTLSKADYEKHKVYACEVTHQGLSSPVTKSFNRGEC", "values": [{"measurement": "binding result", "setting": "[13]", "result": "binds"}]}
{"binder": "B3 variant of GpH7-B3/GpL16-k0 with Leu at position 328 (EU numbering) substituted with Glu (antibody, human IgG1, kappa, also called mutation B) heavy: not shown light: DIVMTQSPLSLPVTPGEPASISCQASESLVHSNRNTYLHWYLQKPGQSPQLLIYKVSNRFSGVPDRFSGSGSGTDFTLKISRVEAEDVGVYYCSQNTHVPPTFGQGTKVEIERTVAAPSVFIFPPSDEQLKSGTASVVCLLNNFYPREAKVQWKVDNALQSGNSQESVTEQDSKDSTYSLSSTLTLSKADYEKHKVYACEVTHQGLSSPVTKSFNRGEC", "values": [{"measurement": "binding result", "setting": "[14]", "result": "binds"}, {"measurement": "binding result", "setting": "[13]", "result": "binds"}]}
